In patent US20250382374A1 (VIRIDIAN THERAPEUTICS, published 2025):
Where a chain is given by its changes, count along the chain named. Names and notes keep the numbering of the source.

What was measured:
[1] = target: T1, IGF-1R on A549 human lung adenocarcinoma cells or primary human ocular choroid fibroblasts (HOCF) (human, UniProt P08069 31-1367); assay: cell-based or functional assay
[2] = target: T1, IGF-1R on A549 human lung …; assay: flow cytometry on A549 cells, binding dose response curve (MFI)
Description: (§1) Unbound antibody was removed by washing, and the cells were incubated with an Alexa Fluor 488™—goat anti-human antibody (fluorescently labeled antibody) and a cell impermeable dye to gate live cells. The median fluorescence intensity (MFI) of viable cells was measured by flow cytometry and the data were analyzed using FlowJo™ software. Dose curves were fitted using a non-linear regression model; log (agonist) vs response-variable slope (four parameters).

[3] = target: T1, IGF-1R on A549 human lung …; assay: flow cytometry on HOCF cells, binding dose response curve (MFI)
Description: as §1

[4] = target: T1, IGF-1R on A549 human lung …; assay: cell based binding assay on A549 cells; YTE only heavy chain (SEQ ID NO: 94)
[5] = target: T1, IGF-1R on A549 human lung …; assay: cell based binding assay on A549 cells; C22S plus YTE heavy chain (SEQ ID NO: 95)
[6] = target: IGF-1R (as used in the surface plasmon resonance assay of Example 7) (UniProt P08069 31-932, limits assumed); assay: SPR, pH 7.4
Chain of IGF-1R (as used in the surface plasmon resonance assay of Example 7) (P08069 31-932 limits assumed): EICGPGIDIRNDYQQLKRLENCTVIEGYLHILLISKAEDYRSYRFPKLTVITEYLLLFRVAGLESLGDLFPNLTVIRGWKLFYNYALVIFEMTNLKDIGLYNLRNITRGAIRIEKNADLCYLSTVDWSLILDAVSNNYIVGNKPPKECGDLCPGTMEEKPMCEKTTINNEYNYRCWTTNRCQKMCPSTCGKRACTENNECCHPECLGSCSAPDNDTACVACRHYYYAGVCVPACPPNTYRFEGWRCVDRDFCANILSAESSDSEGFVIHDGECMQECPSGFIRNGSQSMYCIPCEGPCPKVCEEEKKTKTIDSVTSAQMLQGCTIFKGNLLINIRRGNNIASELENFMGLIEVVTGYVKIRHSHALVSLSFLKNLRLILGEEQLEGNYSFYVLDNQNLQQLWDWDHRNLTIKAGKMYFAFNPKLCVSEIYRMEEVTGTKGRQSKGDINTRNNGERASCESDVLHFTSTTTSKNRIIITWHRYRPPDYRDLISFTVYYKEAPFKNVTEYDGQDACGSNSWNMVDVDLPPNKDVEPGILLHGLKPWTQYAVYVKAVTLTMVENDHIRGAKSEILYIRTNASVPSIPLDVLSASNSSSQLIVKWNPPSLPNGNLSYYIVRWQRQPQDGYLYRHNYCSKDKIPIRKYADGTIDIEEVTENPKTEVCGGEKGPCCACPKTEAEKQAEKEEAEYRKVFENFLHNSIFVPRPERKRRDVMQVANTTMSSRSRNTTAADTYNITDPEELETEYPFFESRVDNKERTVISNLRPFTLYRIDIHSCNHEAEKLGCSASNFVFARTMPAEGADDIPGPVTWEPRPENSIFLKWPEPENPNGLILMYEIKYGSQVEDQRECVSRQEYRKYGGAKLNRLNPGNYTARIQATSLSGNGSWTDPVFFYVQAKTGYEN

T1 sequence (P08069 31-1367): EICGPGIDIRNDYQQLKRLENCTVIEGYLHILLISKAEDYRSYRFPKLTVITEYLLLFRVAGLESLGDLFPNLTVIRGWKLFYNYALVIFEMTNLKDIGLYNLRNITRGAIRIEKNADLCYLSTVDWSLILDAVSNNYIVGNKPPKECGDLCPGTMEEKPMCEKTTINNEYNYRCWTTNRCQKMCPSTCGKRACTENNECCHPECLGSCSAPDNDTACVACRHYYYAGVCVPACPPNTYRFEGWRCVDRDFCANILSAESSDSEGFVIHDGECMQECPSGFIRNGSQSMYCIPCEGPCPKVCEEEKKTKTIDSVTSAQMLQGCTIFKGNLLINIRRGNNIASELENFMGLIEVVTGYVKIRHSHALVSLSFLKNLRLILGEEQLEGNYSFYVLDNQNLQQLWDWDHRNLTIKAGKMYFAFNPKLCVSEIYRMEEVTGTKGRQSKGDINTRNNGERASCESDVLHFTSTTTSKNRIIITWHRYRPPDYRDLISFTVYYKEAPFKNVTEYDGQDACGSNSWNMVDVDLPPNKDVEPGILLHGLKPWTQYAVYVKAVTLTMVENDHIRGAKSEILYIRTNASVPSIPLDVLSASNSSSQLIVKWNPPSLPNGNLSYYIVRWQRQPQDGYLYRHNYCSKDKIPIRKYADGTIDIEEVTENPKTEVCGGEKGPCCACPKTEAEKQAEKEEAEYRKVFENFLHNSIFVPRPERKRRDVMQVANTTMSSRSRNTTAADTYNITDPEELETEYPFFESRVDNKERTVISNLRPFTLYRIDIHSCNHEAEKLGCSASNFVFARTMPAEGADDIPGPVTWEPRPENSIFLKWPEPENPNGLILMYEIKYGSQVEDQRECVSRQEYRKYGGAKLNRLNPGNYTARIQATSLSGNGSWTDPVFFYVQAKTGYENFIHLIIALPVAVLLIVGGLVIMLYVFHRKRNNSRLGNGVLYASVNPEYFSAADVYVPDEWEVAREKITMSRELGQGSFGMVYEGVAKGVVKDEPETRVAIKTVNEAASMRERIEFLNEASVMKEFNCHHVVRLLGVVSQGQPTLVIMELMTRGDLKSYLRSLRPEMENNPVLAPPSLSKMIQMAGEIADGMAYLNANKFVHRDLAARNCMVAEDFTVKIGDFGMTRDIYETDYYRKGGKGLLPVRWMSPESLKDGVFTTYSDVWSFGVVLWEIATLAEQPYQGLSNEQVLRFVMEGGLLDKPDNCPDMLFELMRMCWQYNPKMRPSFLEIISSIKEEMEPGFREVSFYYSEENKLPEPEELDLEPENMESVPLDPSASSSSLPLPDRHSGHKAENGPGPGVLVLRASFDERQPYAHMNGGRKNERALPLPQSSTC

B1: VRDN-1100 (antibody, V domains shown)
VH: QVQLVQSGAEVVKPGASVKLSCKASGYTFTSYWMHWVKQRPGQGLEWIGEINPSNGRTNYNQKFQGKATLTVDKSSSTAYMQLSSLTSEDSAVYYFARGRPDYYGSSKWYFDVWGQGTTVTVSS
VL: DVVMTQTPLSLPVSLGDPASISCRSSQSIVHSNVNTYLEWYLQKPGQSPRLLIYKVSNRFSGVPDRFSGSGAGTDFTLRISRVEAEDLGIYYCFQGSHVPPTFGGGTKLEIKR
notes: Humanized monoclonal antibody to IGF-1R; also called VRDN-01100
In the case of B1, the “IC50 of inhibition of IGF-1 stimulated receptor phosphorylation on A549 cells (pIGF-1R ELISA)” value [1] is reported as 90 pM, the “IC50 of inhibition of IGF-1 stimulated receptor phosphorylation on HOCF cells (pIGF-1R ELISA)” value [1] is reported as 90 pM and the EC50 [2] is reported as 0.1 nM. The EC50 [3] was 0.4 nM.

B2: VRDN-1100 with the Fc YTE mutations in the heavy chain (antibody, human IgG1, kappa)
heavy: QVQLVQSGAEVVKPGASVKLSCKASGYTFTSYWMHWVKQRPGQGLEWIGEINPSNGRTNYNQKFQGKATLTVDKSSSTAYMQLSSLTSEDSAVYYFARGRPDYYGSSKWYFDVWGQGTTVTVSSASTKGPSVFPLAPSSKSTSGGTAALGCLVKDYFPEPVTVSWNSGALTSGVHTFPAVLQSSGLYSLSSVVTVPSSSLGTQTYICNVNHKPSNTKVDKKVEPKSCDKTHTCPPCPAPELLGGPSVFLFPPKPKDTLYITREPEVTCVVVDVSHEDPEVKFNWYVDGVEVHNAKTKPREEQYNSTYRVVSVLTVLHQDWLNGKEYKCKVSNKALPAPIEKTISKAKGQPREPQVYTLPPSRDELTKNQVSLTCLVKGFYPSDIAVEWESNGQPENNYKTTPPVLDSDGSFFLYSKLTVDKSRWQQGNVFSCSVMHEALHNHYTQKSLSLSPG
light: DVVMTQTPLSLPVSLGDPASISCRSSQSIVHSNVNTYLEWYLQKPGQSPRLLIYKVSNRFSGVPDRFSGSGAGTDFTLRISRVEAEDLGIYYCFQGSHVPPTFGGGTKLEIKRTVAAPSVFIFPPSDEQLKSGTASVVCLLNNFYPREAKVQWKVDNALQSGNSQESVTEQDSKDSTYSLSSTLTLSKADYEKHKVYACEVTHQGLSSPVTKSFNRGEC
notes: also called YTE Fc mutatant version of VRDN1100; YTE only mutant
For B2, the “IC50 of inhibition of IGF-1R autophosphorylation” value [1] was 0.4 nM and the EC50 [4] was 0.3 nM.

B3: VRDN-1100 with C22S mutation and Fc YTE mutations in the heavy chain (antibody, human IgG1, kappa)
heavy: B2 heavy with C22S
light: B2 light
notes: also called C22S and Fc YTE mutant; C22S plus YTE mutations
With B3 the “IC50 of inhibition of IGF-1R autophosphorylation” value [1] was 0.37 nM and the EC50 [5] was 0.36 nM.

B4: mutant of VRDN-1100 with a C22S mutation in the heavy chain (antibody, V domains shown)
VH: B1 VH with C22S
VL: DVVMTQTPLSLPVSLGDPASISCRSSQSIVHSNVNTYLEWYLQKPGQSPRLLIYKVSNRFSGVPDRFSGSGAGTDFTLRISRVEAEDLGIYYCFQGSHVPPTFGGGTKLEIK
B4 was tested, and the Kd [6] was 0.21 nM, the koff [6] was 2.18e-05 s⁻¹ and the kon [6] was 104000 M⁻¹ s⁻¹.
